In the nanobody polyreactivity screen of Harvey et al. (2022):

Experiment: yeast display, Sf9 membrane polyspecificity reagent, FACS + sequencing; frameworks hold sequencing errors
Summary of the method: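 A nanobody's polyreactivity label depends on the gate it was sorted from. Yeast display cells were stained with 10% biotinylated, detergent-solubilized Sf9 membrane reagent for 1 hour at 4 °C, enriched on streptavidin microbeads and sorted by FACS. The low and high (top ~1%) gates were set on anti-HA fluorescence for expression and streptavidin fluorescence for reagent binding.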

Row | Sequence | polyreactivity (PSR sort gate)
1 | QVQHVESGGGLVQAGGSLRLSCSASGFTFYSYAMGWYRQAPGTERELLAVISKRGGSTRYADSVKGRFTISRDNAKNSVYFQMNSLKPEDTAVYYCNADQHSMTYNEFDYWGQGTQVTVSS | low polyreactivity
2 | QDQHVESGGGLVQAGGSLRLICDASGTFKFSAMGWYRQAPGKERELVARISRGGTTNYADSVKGRFTISRDNAKNTVYLQMNSLKPAETAVYYCAAPLRYVYSNSYWAYRYDYSGQGTQVTVSS | high polyreactivity
3 | QVQLVESGGGLVQAGGSLRLSCAATGRIFYGYAMGWYRQAPVKERELVAAITRGVSTYYADSVKGRFTISRDNAKNTVYLQMNSLKPEDTAVYYCAIERRVRMDSWGQGTQVTVSS | low polyreactivity
4 | QVQLVESGGGLVQAGCSLRLSCAASGSIFTINAMGWYREAPGKERELVAAISFGGGSTYYADSVKGRFTISRDNAKITGYLQMNSLKREDTAVYYCAAEDWWGYDYWGQGNQVTVSS | high polyreactivity
5 | QVQLVESGGGLVQAGGSLRLSCAASGRTLSIYAMGMYRQAPGKEMELVASISSSGGRTDYADSVKGRFTISRDNAKYTVYLQMNSLKPEDTAVYYCAADGGYYYPYRGYHKYYYWGQGTLVTVSS | low polyreactivity
6 | QVQLVDSGGGLVQAGGSLRLSCAASGITFYDYTMGWYRQAPGKERELVAAITSSGVSTYYADSVKGRFTISRDNAKNTVYLQMNSLKPEDTAVYYCAADLYEDPNGEDDYWGQGTQVTVSS | low polyreactivity
7 | QVQLVESGGGLVQAGGSLRLSCAASGRTFRSYAMGWYRQAPGKERELVAAISRGGRTNYADSVKGRFTISRDNAKNTVYLQMNSLKPEDTAVYYCAAAQFRSYWAFDYWGQGTQVTVSS | high polyreactivity
8 | QVQLVESGGGLVQAGGSLRLSCAASGITFWLYAMGWYRQAPGKERELVAGIDNGGSTTYADSVKGRFTISRDNAKNTVYLQMNILKPEDTAVYYCAATFEWDPVYPYNGFIYDYWGQGTQVTVSS | high polyreactivity
9 | QVQLVESGGGLDQAGGSLRLSCAASGFIFYSNAMGWYRQAPGKERELVAAISRGGGSTYYADSVKGRFTISRDNAKNTVYLQLNSLKPEDTAVYYCAKRRLSPQDDYWGQGTQVTLSS | high polyreactivity
10 | QVQLVESGGGLVQAGGSLRLSCAASGYIVRNAMGWYRQAPGKERQLVAAISRRGGSTYYADSVKGRFTISRDNAKNTVYLQLNSLKPEDTAVYYCAKDKVIPSFDADYYDWGQGTQVTVSS | high polyreactivity
11 | QVQLVESGGGLVQAGGSLRLSCAASGRIIKYYTMGWYRQAPGKERELVAAISRGGTTNYADSVKGRFTISRDNAKNTVYLQMNSLKPEDTAVYYCNAVGFYAANTFDYWGQGTQVTVSS | high polyreactivity
12 | QVQLVESGGGLVQAGGSLRLSCAASGFTFPWYAMVWYRQSPGKERELVASISYRGDSTYYADSVKGRFTISRDNAKNTVNLQMNILKPEDTAVYYCNKLLASYYLPGFDYWGQGTQVTVSS | low polyreactivity
13 | QVQLVESGGGLVQAGGSLRLSCAASGFIFRWNTMGWYRQAPGKERELVAAISSRGGSTYYADSVKGRFKISRDNAKNTVYLQMNSLKPEDTAVYYCNAVRGDEYWGQGTQVTVSS | high polyreactivity
14 | QVQLVESGGGLVQAGGSLRLSCAASGITFYYYTMGWYRTAPGKEREFVAVISGSGGSTYYADSVKGRFTISRDNAKNTVYLQMNSLKPEDTAVYYCAARNSFLAYFVGLIQEDDYWGQGTQVTVSS | high polyreactivity
15 | KVQLVESGAGLVQAGGSLRLTCAASGFTFAYYAMGWYRPAPGKERELVAAISWSGGITYYADSVKGRFTISRDNAKNTVYLQMNSLKPEDTAVDYCAAETFRGSYYDEDYDYWGQGTQVTVSS | low polyreactivity
16 | QVQIVESGGGLVQAGCSLRLSCAASGFIFRRNAMGWYRQAPGKERELVATIRASGGRTYYADSEKGRFTISRDNAKNTVYLQMNSMKPEDTAVYYCAADTYRDVRDPYYYWGQGTQVTVSS | high polyreactivity
17 | QVQLVESGGGLVQAGGSLRLSCAASGSIFYVYAMGGYRQAPGKERELVAAISRRGARTYYADSVKGRFTISRDNAKNTVYLQMNSLKPEDTAVYYCNADQYYTVGYSAEYEYWGQGTQVTVSS | low polyreactivity
